# Assay results: patent publication US20090075925A1, “Methods and Compositions Related to APOBEC-1 Expression” (priority 2006, published 2009)
# B1: S154D: ACF64 with serine 154 to aspartic acid substitution (protein)
# chain: MESNHKSGDGLSGTQKEAALRALVQRTGYSLVQENGQRKYGGPPPGWDTTPPERGCEIFIGKLPRDLFEDELIPLCEKIGKIYEMRMMMDFNGNNRGYAFVTFSNKQEAKNAIKQLNNYEIRNGRLLGVCASVDNCRLFVGGIPKTKKREEILDEMKKVTEGVVDVIVYPSAADKTKNRGFAFVEYESHRAAAMARRRLLPGRIQLWGHPIAVDWAEPEVEVDEDTMSSVKILYVRNLMLSTSEEMIEKEFNSIKPGAVERVKKIRDYAFVHFSNREDAVEAMKALNGKVLDGSPIEVTLAKPVDKDSYVRYTRGTGGRNTMLQEYTYPLSHVYDPTTTYLGAPVFYTPQAYAAIPSLHFPATKGHLSNRALIRTPSVRGAAGVRGLGGRGYLAYTGLGRGYQVKGDKRQDKLYDLLPGMELTPMNTISLKPQGVKLAPQILEEICQKNNWGQPVYQLHSAIGQDQRQLFLYKVTIPALASQNPAIHPFTPPKLSAYVDEAKRYAAEHTLQTLGIPTEGGDAGTTAPTATSATVFPGYAVPSATAPVSTAQLKQAVTLGQDLAAYTTYEVYPTFAVTTRGDGYGTF
# B2: ACF64: 64 kDa ACF variant, SEQ ID NO:1 (protein)
# chain: MESNHKSGDGLSGTQKEAALRALVQRTGYSLVQENGQRKYGGPPPGWDAAPPERGCEIFIGKLPRDLFEDELIPLCEKIGKIYEMRMMMDFNGNNRGYAFVTFSNKVEAKNAIKQLNNYEIRNGRLLGVCASVDNCRLFVGGIPKTKKREEILSEMKKVTNEGVVDVIVYPSAADKTKNRGFAFVEYESHRTAAMARRKLLPGRIQLWGHGIAVDWAEPEVEVDEDTMSSVKILYVRNLMLSTSEEMIEKEFNNIKPGAVERVKKIRDYAFVHFSNRKDAVEAMKALNGKVLDGSPIEVTLAKPVDKDSYVRYTRGTGGRGTMLQGEYTYSLGQVYDPTTTYLGAPVFYAPQTYAAIPSLHFPATKGHLSNRAIIRAPSVRGAAGVRGLGGRGYLAYTGLGRGYQVKGDKREDKLYDILPGMELTPMNPVTLKPQGIKLAPQILEEICQKNNWGQPVYQLHSAIGQDQRQLFLYKITIPALASQNPAIHPFTPPKLSAFVDEAKTYAAENYTLQTLGIPTDGGDGTMATAAAAATAFPGYAVPNATAPVSAAQLKQAVTLGQDLAAYTNTYEVYPTFAVTARGDGYGTF
# B3: ACF43: 43 kDa ACF variant, SEQ ID NO:19 (protein)
# chain: MESNHKSGDGLSGTQKEAALRALVQRTGYSLVQENGQRKYGGPPPGWDAAPPERGCEIFIGKLPRDLFEDELIPLCEKIGKIYEMRMMMDFNGNNRGYAFVTFSNKVEAKNAIKQLNNYEIRNGRLLGVCASVDNCRLFVGGIPKTKKREEILSEMKKVTEGVVDVIVYPSAADKTKNRGFAFVEYESHRAAAMARRKLLPGRIQLWGHGIAVDWAEPEVEVDEDTMSSVKILYVRNLMLSTSEEMIEKEFNNIKPGAVERVKKIRDYAFVHFSNRKDAVEAMKALNGKVLDGSPIEVTLAKPVDKDSYVRYTRGTGGRGTMLQGEYTYSLGQVYDPTTTYLGAPVFYAPQTYAAIPSLHFPATKGHLSNRAIIRAPSVRGAAGVRGLGGRGYLAYTGLGRGYQVKGDKREDKLYDILPGMELTPMNPVTLKPQGIKLAPQILEEICQKNNWGQPVYQLHSAIGQDQRQLFLYKITIPALASQNPAIHPFTPPKLSAFVDEAKTYAAEYTLQTLGIPTDGGDGTMATAAAAATAFPGYAVPNATAPVSAAQLKQAVTLGQDLAAYTTYEVYPTFAVTARGDGYGTF
# B4: ACF45: 45 kDa ACF variant, SEQ ID NO:18 (protein)
# chain: MESNHKSGDGLSGTQKEAALRALVQRTGYSLVQENGQRKYGGPPPGWDAAPPERGCEIFIGKLPRDLFEDELIPLCEKIGKIYEMRMMMDFNGNNRGYAFVTFSNKVEAKNAIKQLNNYEIRNGRLLGVCASVDNCRLFVGGIPKTKKREEILSEMKKVTEGVVDVIVYPSAADKTKNRGFAFVEYESHRAAAMARRKLLPGRIQLWGHGIAVDWAEPEVEVDEDTMSSVKILYVRNLMLSTSEEMIEKEFNNIKPGAVERVKKIRDYAFVHFSNRKDAVEAMKALNGKVLDGSPIEVTLAKPVDKDSYVRYTRGTGGRGTMLQGEYTYSLGQVYDPTTTYLGAPVFYAPQTYAAIPSLHFPATKGHLSNRAIIRAPSVRGAAGVRGLGGRGYLAYTGLGRGYQVKGDKREDKLYDILPGMELTPMNPVTLKPQGIKLAPQILEEICQKNNWGQPVYQLHSAIGQDQRQLFLYKITIPALASQNPAIHPFTPPKLSAFVDEAKTYAAEYTLQTLGIPTDGGDGTMATAAAAATAFPGYAVPNATAPVSAAQLKQAVTLGQDLAAYTTYEVYPTFAVTARGDGYGTF
# Assays:
# apoB mRNA editing [1] = assay: apoB mRNA editing in McArdle cells (ethanol, ACF wild type, mutants and isoforms); type: cell-based, rat; details: for effect of isoform expression on editing: HA-tagged, transfected McArdle cells
# Protocol: McArdle RH7777 cells (ATCC Manassas, Va.) stably expressing HA epitope-tagged APOBEC-1 (Yang et al. J Biol Chem 272:27700-6 (1997)) were treated for 4 hours with 0.9% ethanol and fractionated into nuclear extracts (Van Mater et al. (1998)).
# To calibrate the system cells were incubated in the presence of ethanol for 4 hours and the amount of edited apoB mRNA determined.
# The overall expression and subcellular localization of epitope tagged ACF isoforms is established by western blotting of nuclear and cytoplasmic extracts (prepared using NE-PER system; Pierce). These biochemical studies are complemented by immunofluorescence microscopy of paraformaldehyde fixed cells reacted with epitope tag or ACF isoform-specific antibodies. In pilot experiments varying levels of HA-tagged ACF43 and ACF45 were expressed by transfecting differing amounts of cDNA into McArdle or McAPOBEC cells (FIGS. 35A & C, western blots). […] The above transient transfection scenarios can be recapitulated in ethanol treated cells to evaluate the affect of ACF isoform abundance on cells ability to respond to metabolic perturbation. […] ACF expression levels, subcellular localization and editing activity are determined from replicate experiments and the relative affects of overexpressing each isoform compared in the absence (negative control) or presence of ethanol and to the response seen in wild type cells (positive control).
# apoB mRNA editing [2] = assay: apoB mRNA editing in McAPOBEC cells transfected with ACF isoforms; type: cell-based, rat; details: HA-tagged
# Source text: The overall expression and subcellular localization of epitope tagged ACF isoforms is established by western blotting of nuclear and cytoplasmic extracts (prepared using NE-PER system; Pierce). These biochemical studies are complemented by immunofluorescence microscopy of paraformaldehyde fixed cells reacted with epitope tag or ACF isoform-specific antibodies. In pilot experiments varying levels of HA-tagged ACF43 and ACF45 were expressed by transfecting differing amounts of cDNA into McArdle or McAPOBEC cells (FIGS. 35A & C, western blots). The level of exogenously expressed HA-tagged APOBEC-1 in McAPOBEC cells was high and unaffected by ACF isoform expression (FIG. 35C). Sufficient endogenous ACF was expressed in McAPOBEC cells to support 61% editing (FIG. 35D, poisoned primer extension) given the level of APOBEC-1 overexpression (FIG. 35C). […] ACF43's facilitation of ACF64/65 binding to apoB mRNA enhanced editing activity only when APOBEC-1 abundance was not rate limiting (analogous to FIG. 34, insulin). […] ACF expression levels, subcellular localization and editing activity are determined from replicate experiments and the relative affects of overexpressing each isoform compared in the absence (negative control) or presence of ethanol and to the response seen in wild type cells (positive control).
Molecule,enhancement of editing (apoB mRNA editing [1]; stable McArdle cell line) [%],stimulation of editing by stable ectopic expression compared to untransfected McArdle cells (apoB mRNA editing [1]; stable cell line) [%],"further stimulation of editing on addition of ethanol (apoB mRNA editing [1]; stable cell line, ethanol) [fold]",effect of isoform expression on editing (apoB mRNA editing [1]),effect of isoform expression on editing (61% editing without) (apoB mRNA editing [2])
B1,67,–,–,–,–
B2,–,19,3,–,–
B3,–,–,–,did not affect editing,stimulated editing activity
B4,–,–,–,inhibited editing over two-fold,had no affect
